Measurements published in US20230250154A1 (CYTONICS, published 2023).
Blank lines part the entries; values can stand above or below the binder they belong to.

Assays:
Experiment in all cases: cell-based or functional assay
MMP1 = biological target: T1, MMP1 (human, UniProt P03956 100-469, limits assumed)
T1 sequence (looked up): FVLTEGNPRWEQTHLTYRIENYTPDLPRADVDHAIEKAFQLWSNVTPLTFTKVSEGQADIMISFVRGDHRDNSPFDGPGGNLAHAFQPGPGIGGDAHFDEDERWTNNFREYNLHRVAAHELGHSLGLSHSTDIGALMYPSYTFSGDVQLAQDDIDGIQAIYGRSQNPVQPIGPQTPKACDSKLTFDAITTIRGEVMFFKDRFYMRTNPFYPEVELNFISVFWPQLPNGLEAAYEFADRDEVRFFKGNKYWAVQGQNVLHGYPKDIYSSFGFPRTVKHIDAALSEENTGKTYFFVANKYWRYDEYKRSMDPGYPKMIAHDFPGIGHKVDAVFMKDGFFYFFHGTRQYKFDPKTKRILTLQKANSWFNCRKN

MMP2 = biological target: T2, MMP2 (human, UniProt P08253 110-660, limits assumed)
T2 sequence (looked up): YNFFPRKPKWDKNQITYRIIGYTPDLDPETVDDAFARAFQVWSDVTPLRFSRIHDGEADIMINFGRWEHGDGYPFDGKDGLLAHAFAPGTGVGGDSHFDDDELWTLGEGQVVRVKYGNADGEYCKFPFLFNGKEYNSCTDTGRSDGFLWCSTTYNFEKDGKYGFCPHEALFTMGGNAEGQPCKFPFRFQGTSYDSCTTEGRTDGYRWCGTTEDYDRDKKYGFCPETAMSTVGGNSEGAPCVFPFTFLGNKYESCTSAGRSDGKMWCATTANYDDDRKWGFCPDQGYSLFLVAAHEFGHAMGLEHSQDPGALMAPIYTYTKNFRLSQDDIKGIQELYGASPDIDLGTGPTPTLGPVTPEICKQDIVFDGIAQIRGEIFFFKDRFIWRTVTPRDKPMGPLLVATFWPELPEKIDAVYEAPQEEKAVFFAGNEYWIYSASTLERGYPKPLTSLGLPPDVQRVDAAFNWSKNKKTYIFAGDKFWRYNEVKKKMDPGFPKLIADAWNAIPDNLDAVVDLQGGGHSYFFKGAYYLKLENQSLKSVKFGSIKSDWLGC

Elastase = biological target: Elastase
Cathepsin G = biological target: T3, Cathepsin G (UniProt P08311 21-244)
T3 sequence (looked up): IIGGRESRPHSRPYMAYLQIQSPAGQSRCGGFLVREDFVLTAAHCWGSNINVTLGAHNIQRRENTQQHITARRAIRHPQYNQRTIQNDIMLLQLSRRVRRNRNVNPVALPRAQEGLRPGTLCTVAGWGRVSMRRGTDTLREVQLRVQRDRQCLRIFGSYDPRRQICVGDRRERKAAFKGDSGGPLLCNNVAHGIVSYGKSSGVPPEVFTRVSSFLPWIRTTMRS

MMP8 = MMP8 (human, UniProt P22894 101-467, limits assumed)
MMP8, sequence (P22894 101-467 limits assumed): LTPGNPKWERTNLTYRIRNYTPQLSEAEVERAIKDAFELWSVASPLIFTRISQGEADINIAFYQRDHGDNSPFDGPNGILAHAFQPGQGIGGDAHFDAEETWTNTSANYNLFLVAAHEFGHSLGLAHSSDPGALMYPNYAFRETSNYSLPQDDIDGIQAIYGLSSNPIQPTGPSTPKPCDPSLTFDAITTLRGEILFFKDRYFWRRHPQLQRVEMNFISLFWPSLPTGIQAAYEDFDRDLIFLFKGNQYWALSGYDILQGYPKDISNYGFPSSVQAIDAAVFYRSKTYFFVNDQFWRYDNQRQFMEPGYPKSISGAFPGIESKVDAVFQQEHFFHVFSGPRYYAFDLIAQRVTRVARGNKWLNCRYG

Protease Inhibition (% of WT) (MMP1): 400 % of WT
Protease Inhibition (% of WT) (MMP2): 20 % of WT
Protease Inhibition (% of WT) (Elastase): 100 % of WT
Protease Inhibition (% of WT) (Cathepsin G): 225 % of WT
B1: Variant A2M, bait region SEQ ID NO 128 (other)
chain: SVSGKPQYMVLVPSLLHTETTEKGCVLLSYLNETVTVSASLESVRGNRSLFTDLEAENDVLHCVAFAVPKSSSNEEVMFLTVQVKGPTQEFKKRTTVMVKNEDSLVFVQTDKSIYKPGQTVKFRVVSMDENFHPLNELIPLVYIQDPKGNRIAQWQSFQLEGGLKQFSFPLSSEPFQGSYKVVVQKKSGGRTEHPFTVEEFVLPKFEVQVTVPKIITILEEEMNVSVCGLYTYGKPVPGHVTVSICRKYSDASDCHGEDSQAFCEKFSGQLNSHGCFYQQVKTKVFQLKRKEYEMKLHTEAQIQEEGTVVELTGRQSSEITRTITKLSFVKVDSHFRQGIPFFGQVRLVDGKGVPIPNKVIFIRGNEANYYSNATTDEHGLVQFSINTTNVMGTSLTVRVNYKDRSPCYGYQWVSEEHEEAHHTAYLVFSPSKSFVHLEPMSHELPCGHTQTVQAHYILNGGTLLGLKKLSFYYLIMAKGGIVRTGTHGLLVKQEDMKGHFSISIPVKSDIAPVARLLIYAVLPTGDVIGDSAKYDVENCLANKVDLSFSPSQSLPASHAHLRVTAAPQSVCALRAVDQSVLLMKPDAELSASSVYNLLPEKDLTGFPGPLNDQDDEDCINRHNVYINGITYTPVSSTNEKDMYSFLEDMGLKAFTNSKIRKPKMCPQLEQYEMHGPSELEGRGSEAIPMSIPTKEEEGLGSIPENFFGVVEEPHTKLRKYFPETWIWDLVVVNSAGVAEVGVTVPDTITEWKAGAFCLSEDAGLGISSTASLRAFQPFFVELTMPYSVIRGEAFTLKATVLNYLPKCIRVSVQLEASPAFLAVPVEKEQAPHCICANGRQTVSWAVTPKSLGNVNFTVSAEALESQELCGTEVPSVPEHGRKDTVIKPLLVEPEGLEKETTFNSLLCPSGGEVSEELSLKLPPNVVEESARASVSVLGDILGSAMQNTQNLLQMPYGCGEQNMVLFAPNIYVLDYLNETQQLTPEIKSKAIGYLNTGYQRQLNYKHYDGSYSTFGERYGRNQGNTWLTAFVLKTFAQARAYIFIDEAHITQALIWLSQRQKDNGCFRSSGSLLNNAIKGGVEDEVTLSAYITIALLEIPLTVTHPVVRNALFCLESAWKTAQEGDHGSHVYTKALLAYAFALAGNQDKRKEVLKSLNEEAVKKDNSVHWERPQKPKAPVGHFYEPQAPSAEVEMTSYVLLAYLTAQPAPTSEDLTSATNIVKWITKQQNAQGGFSSTQDTVVALHALSKYGAATFTRTGKAAQVTIQSSGTFSSKFQVDNNNRLLLQQVSLPELPGEYSMKVTGEGCVYLQTSLKYNILPEKEEFPFALGVQTLPQTCDEPKAHTSFQISLSVSYTGSRSASNMAIVDVKMVSGFIPLKPTVKMLERSNHVSRTEVSSNHVLIYLDKVSNQTLSLFFTVLQDVPVRDLKPAIVKVYDYYETDEFAIAEYNAPCSKDLGNADYKDDDDKGASHHHHHH

Protease Inhibition (% of WT) (MMP1): 200 % of WT
Protease Inhibition (% of WT) (MMP8): 200 % of WT
Protease Inhibition (% of WT) (Elastase): 300 % of WT
Protease Inhibition (% of WT) (Cathepsin G): 250 % of WT
B2: Variant A2M, bait region SEQ ID NO 134 (other)
chain: SVSGKPQYMVLVPSLLHTETTEKGCVLLSYLNETVTVSASLESVRGNRSLFTDLEAENDVLHCVAFAVPKSSSNEEVMFLTVQVKGPTQEFKKRTTVMVKNEDSLVFVQTDKSIYKPGQTVKFRVVSMDENFHPLNELIPLVYIQDPKGNRIAQWQSFQLEGGLKQFSFPLSSEPFQGSYKVVVQKKSGGRTEHPFTVEEFVLPKFEVQVTVPKIITILEEEMNVSVCGLYTYGKPVPGHVTVSICRKYSDASDCHGEDSQAFCEKFSGQLNSHGCFYQQVKTKVFQLKRKEYEMKLHTEAQIQEEGTVVELTGRQSSEITRTITKLSFVKVDSHFRQGIPFFGQVRLVDGKGVPIPNKVIFIRGNEANYYSNATTDEHGLVQFSINTTNVMGTSLTVRVNYKDRSPCYGYQWVSEEHEEAHHTAYLVFSPSKSFVHLEPMSHELPCGHTQTVQAHYILNGGTLLGLKKLSFYYLIMAKGGIVRTGTHGLLVKQEDMKGHFSISIPVKSDIAPVARLLIYAVLPTGDVIGDSAKYDVENCLANKVDLSFSPSQSLPASHAHLRVTAAPQSVCALRAVDQSVLLMKPDAELSASSVYNLLPEKDLTGFPGPLNDQDDEDCINRHNVYINGITYTPVSSTNEKDMYSFLEDMGLKAFTNSKIRKPKMCPQLEQYEMHGPSELEGRGSIPENFFGVKEEEGLGSSEDLVVQIVEEPHTKLRKYFPETWIWDLVVVNSAGVAEVGVTVPDTITEWKAGAFCLSEDAGLGISSTASLRAFQPFFVELTMPYSVIRGEAFTLKATVLNYLPKCIRVSVQLEASPAFLAVPVEKEQAPHCICANGRQTVSWAVTPKSLGNVNFTVSAEALESQELCGTEVPSVPEHGRKDTVIKPLLVEPEGLEKETTFNSLLCPSGGEVSEELSLKLPPNVVEESARASVSVLGDILGSAMQNTQNLLQMPYGCGEQNMVLFAPNIYVLDYLNETQQLTPEIKSKAIGYLNTGYQRQLNYKHYDGSYSTFGERYGRNQGNTWLTAFVLKTFAQARAYIFIDEAHITQALIWLSQRQKDNGCFRSSGSLLNNAIKGGVEDEVTLSAYITIALLEIPLTVTHPVVRNALFCLESAWKTAQEGDHGSHVYTKALLAYAFALAGNQDKRKEVLKSLNEEAVKKDNSVHWERPQKPKAPVGHFYEPQAPSAEVEMTSYVLLAYLTAQPAPTSEDLTSATNIVKWITKQQNAQGGFSSTQDTVVALHALSKYGAATFTRTGKAAQVTIQSSGTFSSKFQVDNNNRLLLQQVSLPELPGEYSMKVTGEGCVYLQTSLKYNILPEKEEFPFALGVQTLPQTCDEPKAHTSFQISLSVSYTGSRSASNMAIVDVKMVSGFIPLKPTVKMLERSNHVSRTEVSSNHVLIYLDKVSNQTLSLFFTVLQDVPVRDLKPAIVKVYDYYETDEFAIAEYNAPCSKDLGNADYKDDDDKGASHHHHHH
